This data set is described as follows: in vitro. In kind it is in vitro ADME. The note with it: human, plasma.

By half-life is commonly meant the time in which the quantity being followed falls by half. High values mean slow decline, low ones rapid decline.

On to `[N-]=[N+]=NC(CCCCNC(=O)[C@H](CCC(=O)O)NC(=O)C1=C[C@H](O)[C@@H](NC(=O)[C@H](CCC(=O)O)NC(=O)C2=C[C@H](O)[C@@H](NC(=O)[C@H](CCC(=O)O)NC(=O)C3=C[C@H](O)[C@@H](NC(=O)CN4CCN(CC(=O)O)CCN(CC(=O)O)CCN(CC(=O)O)CC4)[C@H]([C@H](O)[C@H](O)CO)O3)[C@H]([C@H](O)[C@H](O)CO)O2)[C@H]([C@H](O)[C@H](O)CO)O1)C(N)=O` (some centres unmarked) [compound 10], for which the half-life was 16.2 days.

As for `[N-]=[N+]=NC(CCCCNC(=O)C1=C[C@H](O)[C@@H](NC(=O)[C@@H](CCC(=O)O)NC(=O)C2=C[C@H](O)[C@@H](NC(=O)[C@@H](CCC(=O)O)NC(=O)C3=C[C@H](O)[C@@H](NC(=O)[C@@H](CCC(=O)O)NC(=O)CN4CCN(CC(=O)O)CCN(CC(=O)O)CCN(CC(=O)O)CC4)[C@H]([C@H](O)[C@H](O)CO)O3)[C@H]([C@H](O)[C@H](O)CO)O2)[C@H]([C@H](O)[C@H](O)CO)O1)C(N)=O` (some centres unmarked) [compound 7], the half-life was 4.08 days.

For the origin of these results see publication PMC4504198 (Chemical biology & drug design, 2010).
